The results in this text go back to paper PMC3701320, “Crystal Structures of Malonyl-Coenzyme A Decarboxylase Provide Insights into Its Catalytic Mechanism and Disease-Causing Mutations” (Structure(London, England:1993), 2013).

Numbering of substitutions follows the chain as printed. Names and notes keep the numbering of the source.

Data set [1] has as its target Rhodopseudomonas palustris malonyl-CoA decarboxylase (RpMCD), residues 8-451 (Rhodopseudomonas palustris). Kind of data set: multiangle static light scattering; oligomeric state in solution; data not shown.
Data set [2] concerns the target Cupriavidus metallidurans malonyl-CoA decarboxylase (CmMCD), residues 57-473 (Cupriavidus metallidurans). In words: not stated; oligomeric state of CmMCD in solution; method not given.
Data set [3] deals with the molecule itself. In words: multiangle static light scattering; oligomeric state in solution; data not shown.
Data set [4] deals with the molecule itself. In words: SEC + AUC; analytical gel filtration on Superdex 200 in 10 mM HEPES pH 7.5, 150 mM NaCl; sedimentation velocity at 30,000 rpm, 4 °C, 50 μM HsMCD in the same buffer; oligomeric state in solution. In general terms: In gel filtration, larger molecules generally elute earlier.

Broadly, the stoichiometry N is the number of molecules, sites or subunits per partner or assembly. In turn, “Rhodopseudomonas palustris malonyl-CoA decarboxylase (RpMCD), residues 8-451 (enzyme)” showed a stoichiometry N in data set [1] of 4.

In the case of “Cupriavidus metallidurans malonyl-CoA decarboxylase (CmMCD), residues 57-473 (enzyme)”, the stoichiometry N in data set [2] is 2.

B1: Agrobacterium vitis malonyl-CoA decarboxylase (AvMCD), residues 1-448 (enzyme)
chain: MAGTSFLSDLLSGVTERGRALLFSGSKARDRVVDTDIETLCEMLLSSRGEASGMAIAAEILDRWSRFNAAEAVQFLHMLSDRFGAEAAALDKAIDAYRTDKSPMAVIALHNAAEPRRQELLRRLNLAPNGTQKLVRMRERLLETKEDRADLGAVDTDFAHLFSSWFNRGFLTLQPIDWTTPAHILEKIIKYEAVHEIAGWEELRRRLAPADRRCFAFFHPRLRDDPLVFVEVALTRSIPSAIADVLDESRDHIGADTATTAVFYSISNCQDGLRGISFGNFLIKQVVEDLRRDLPGLKEFVTLSPVPGFARWISKIRDPKSGFPLSPEDRNTLVLLDDPTWPEDKARADAVERILLPLAARYFITERTPDNRPVDPVARFHLGNGARLERLNFLGDRSVKAMRQAHGLMVNYLYKLEDIETNHEALAQRGEVAASPAVKALQGKIEPI
modifications: selenomethionyl (Se-Met labeled) protein
In the case of B1, the “stoichiometry N” value in data set [3] was 4.

B2: Wild-type human malonyl-coenzyme A decarboxylase (HsMCD), residues 40-491 (enzyme, UniProt O95822 40-491, looked up)
chain: MDELLRRAVPPTPAYELREKTPAPAEGQCADFVSFYGGLAETAQRAELLGRLARGFGVDHGQVAEQSAGVLHLRQQQREAAVLLQAEDRLRYALVPRYRGLFHHISKLDGGVRFLVQLRADLLEAQALKLVEGPDVREMNGVLKGMLSEWFSSGFLNLERVTWHSPCEVLQKISEAEAVHPVKNWMDMKRRVGPYRRCYFFSHCSTPGEPLVVLHVALTGDISSNIQAIVKEHPPSETEEKNKITAAIFYSISLTQQGLQGVELGTFLIKRVVKELQREFPHLGVFSSLSPIPGFTKWLLGLLNSQTKEHGRNELFTDSECKEISEITGGPINETLKLLLSSSEWVQSEKLVRALQTPLMRLCAWYLYGEKHRGYALNPVANFHLQNGAVLWRINWMADVSLRGITGSCGLMANYRYFLEETGPNSTSYLGSKIIKASEQVLSLVAQFQKNS
notes: Malonyl-CoA decarboxylase (MCD, E.C. 4.1.1.9), human, residues 40-491, corresponding to the mature mitochondrial form; The His6-tag is TEV-cleavable (vector pNIC28-Bsa4, GenBank EF198106); also called human MCD; Wild-type HsMCD
Turning to B2, the “stoichiometry N” value in data set [4] amounted to 4.

B3: HsMCD E58A/K59A/E278A/E279A/K280A quintuple surface entropy reduction (SER) mutant, residues 40-491 (enzyme, human, UniProt O95822 40-491, looked up)
chain: B2 chain with E19A, K20A, E239A, E240A, K241A
notes: Malonyl-CoA decarboxylase (MCD), human, residues 40-491 (mature mitochondrial form) with five alanine substitutions for surface entropy reduction; The His6-tag is TEV-cleavable; Crystallised with a dimer in the asymmetric unit; the tetramer is generated through a crystallographic 2-fold axis; also called Quintuple SER mutant; SER quintuple mutant
Consider B3, for which, in data set [4], the binding result is given as “binds”.
